This note sets out measurements from patent publication EP2322204A1.

For this assay, the target named is LRP1 receptor on human astrocytoma 1321N1 cells (human) (UniProt Q07954). Nature of the assay: cell-based or functional assay.
UniProt Q07954, sequence (Q07954 20-4544): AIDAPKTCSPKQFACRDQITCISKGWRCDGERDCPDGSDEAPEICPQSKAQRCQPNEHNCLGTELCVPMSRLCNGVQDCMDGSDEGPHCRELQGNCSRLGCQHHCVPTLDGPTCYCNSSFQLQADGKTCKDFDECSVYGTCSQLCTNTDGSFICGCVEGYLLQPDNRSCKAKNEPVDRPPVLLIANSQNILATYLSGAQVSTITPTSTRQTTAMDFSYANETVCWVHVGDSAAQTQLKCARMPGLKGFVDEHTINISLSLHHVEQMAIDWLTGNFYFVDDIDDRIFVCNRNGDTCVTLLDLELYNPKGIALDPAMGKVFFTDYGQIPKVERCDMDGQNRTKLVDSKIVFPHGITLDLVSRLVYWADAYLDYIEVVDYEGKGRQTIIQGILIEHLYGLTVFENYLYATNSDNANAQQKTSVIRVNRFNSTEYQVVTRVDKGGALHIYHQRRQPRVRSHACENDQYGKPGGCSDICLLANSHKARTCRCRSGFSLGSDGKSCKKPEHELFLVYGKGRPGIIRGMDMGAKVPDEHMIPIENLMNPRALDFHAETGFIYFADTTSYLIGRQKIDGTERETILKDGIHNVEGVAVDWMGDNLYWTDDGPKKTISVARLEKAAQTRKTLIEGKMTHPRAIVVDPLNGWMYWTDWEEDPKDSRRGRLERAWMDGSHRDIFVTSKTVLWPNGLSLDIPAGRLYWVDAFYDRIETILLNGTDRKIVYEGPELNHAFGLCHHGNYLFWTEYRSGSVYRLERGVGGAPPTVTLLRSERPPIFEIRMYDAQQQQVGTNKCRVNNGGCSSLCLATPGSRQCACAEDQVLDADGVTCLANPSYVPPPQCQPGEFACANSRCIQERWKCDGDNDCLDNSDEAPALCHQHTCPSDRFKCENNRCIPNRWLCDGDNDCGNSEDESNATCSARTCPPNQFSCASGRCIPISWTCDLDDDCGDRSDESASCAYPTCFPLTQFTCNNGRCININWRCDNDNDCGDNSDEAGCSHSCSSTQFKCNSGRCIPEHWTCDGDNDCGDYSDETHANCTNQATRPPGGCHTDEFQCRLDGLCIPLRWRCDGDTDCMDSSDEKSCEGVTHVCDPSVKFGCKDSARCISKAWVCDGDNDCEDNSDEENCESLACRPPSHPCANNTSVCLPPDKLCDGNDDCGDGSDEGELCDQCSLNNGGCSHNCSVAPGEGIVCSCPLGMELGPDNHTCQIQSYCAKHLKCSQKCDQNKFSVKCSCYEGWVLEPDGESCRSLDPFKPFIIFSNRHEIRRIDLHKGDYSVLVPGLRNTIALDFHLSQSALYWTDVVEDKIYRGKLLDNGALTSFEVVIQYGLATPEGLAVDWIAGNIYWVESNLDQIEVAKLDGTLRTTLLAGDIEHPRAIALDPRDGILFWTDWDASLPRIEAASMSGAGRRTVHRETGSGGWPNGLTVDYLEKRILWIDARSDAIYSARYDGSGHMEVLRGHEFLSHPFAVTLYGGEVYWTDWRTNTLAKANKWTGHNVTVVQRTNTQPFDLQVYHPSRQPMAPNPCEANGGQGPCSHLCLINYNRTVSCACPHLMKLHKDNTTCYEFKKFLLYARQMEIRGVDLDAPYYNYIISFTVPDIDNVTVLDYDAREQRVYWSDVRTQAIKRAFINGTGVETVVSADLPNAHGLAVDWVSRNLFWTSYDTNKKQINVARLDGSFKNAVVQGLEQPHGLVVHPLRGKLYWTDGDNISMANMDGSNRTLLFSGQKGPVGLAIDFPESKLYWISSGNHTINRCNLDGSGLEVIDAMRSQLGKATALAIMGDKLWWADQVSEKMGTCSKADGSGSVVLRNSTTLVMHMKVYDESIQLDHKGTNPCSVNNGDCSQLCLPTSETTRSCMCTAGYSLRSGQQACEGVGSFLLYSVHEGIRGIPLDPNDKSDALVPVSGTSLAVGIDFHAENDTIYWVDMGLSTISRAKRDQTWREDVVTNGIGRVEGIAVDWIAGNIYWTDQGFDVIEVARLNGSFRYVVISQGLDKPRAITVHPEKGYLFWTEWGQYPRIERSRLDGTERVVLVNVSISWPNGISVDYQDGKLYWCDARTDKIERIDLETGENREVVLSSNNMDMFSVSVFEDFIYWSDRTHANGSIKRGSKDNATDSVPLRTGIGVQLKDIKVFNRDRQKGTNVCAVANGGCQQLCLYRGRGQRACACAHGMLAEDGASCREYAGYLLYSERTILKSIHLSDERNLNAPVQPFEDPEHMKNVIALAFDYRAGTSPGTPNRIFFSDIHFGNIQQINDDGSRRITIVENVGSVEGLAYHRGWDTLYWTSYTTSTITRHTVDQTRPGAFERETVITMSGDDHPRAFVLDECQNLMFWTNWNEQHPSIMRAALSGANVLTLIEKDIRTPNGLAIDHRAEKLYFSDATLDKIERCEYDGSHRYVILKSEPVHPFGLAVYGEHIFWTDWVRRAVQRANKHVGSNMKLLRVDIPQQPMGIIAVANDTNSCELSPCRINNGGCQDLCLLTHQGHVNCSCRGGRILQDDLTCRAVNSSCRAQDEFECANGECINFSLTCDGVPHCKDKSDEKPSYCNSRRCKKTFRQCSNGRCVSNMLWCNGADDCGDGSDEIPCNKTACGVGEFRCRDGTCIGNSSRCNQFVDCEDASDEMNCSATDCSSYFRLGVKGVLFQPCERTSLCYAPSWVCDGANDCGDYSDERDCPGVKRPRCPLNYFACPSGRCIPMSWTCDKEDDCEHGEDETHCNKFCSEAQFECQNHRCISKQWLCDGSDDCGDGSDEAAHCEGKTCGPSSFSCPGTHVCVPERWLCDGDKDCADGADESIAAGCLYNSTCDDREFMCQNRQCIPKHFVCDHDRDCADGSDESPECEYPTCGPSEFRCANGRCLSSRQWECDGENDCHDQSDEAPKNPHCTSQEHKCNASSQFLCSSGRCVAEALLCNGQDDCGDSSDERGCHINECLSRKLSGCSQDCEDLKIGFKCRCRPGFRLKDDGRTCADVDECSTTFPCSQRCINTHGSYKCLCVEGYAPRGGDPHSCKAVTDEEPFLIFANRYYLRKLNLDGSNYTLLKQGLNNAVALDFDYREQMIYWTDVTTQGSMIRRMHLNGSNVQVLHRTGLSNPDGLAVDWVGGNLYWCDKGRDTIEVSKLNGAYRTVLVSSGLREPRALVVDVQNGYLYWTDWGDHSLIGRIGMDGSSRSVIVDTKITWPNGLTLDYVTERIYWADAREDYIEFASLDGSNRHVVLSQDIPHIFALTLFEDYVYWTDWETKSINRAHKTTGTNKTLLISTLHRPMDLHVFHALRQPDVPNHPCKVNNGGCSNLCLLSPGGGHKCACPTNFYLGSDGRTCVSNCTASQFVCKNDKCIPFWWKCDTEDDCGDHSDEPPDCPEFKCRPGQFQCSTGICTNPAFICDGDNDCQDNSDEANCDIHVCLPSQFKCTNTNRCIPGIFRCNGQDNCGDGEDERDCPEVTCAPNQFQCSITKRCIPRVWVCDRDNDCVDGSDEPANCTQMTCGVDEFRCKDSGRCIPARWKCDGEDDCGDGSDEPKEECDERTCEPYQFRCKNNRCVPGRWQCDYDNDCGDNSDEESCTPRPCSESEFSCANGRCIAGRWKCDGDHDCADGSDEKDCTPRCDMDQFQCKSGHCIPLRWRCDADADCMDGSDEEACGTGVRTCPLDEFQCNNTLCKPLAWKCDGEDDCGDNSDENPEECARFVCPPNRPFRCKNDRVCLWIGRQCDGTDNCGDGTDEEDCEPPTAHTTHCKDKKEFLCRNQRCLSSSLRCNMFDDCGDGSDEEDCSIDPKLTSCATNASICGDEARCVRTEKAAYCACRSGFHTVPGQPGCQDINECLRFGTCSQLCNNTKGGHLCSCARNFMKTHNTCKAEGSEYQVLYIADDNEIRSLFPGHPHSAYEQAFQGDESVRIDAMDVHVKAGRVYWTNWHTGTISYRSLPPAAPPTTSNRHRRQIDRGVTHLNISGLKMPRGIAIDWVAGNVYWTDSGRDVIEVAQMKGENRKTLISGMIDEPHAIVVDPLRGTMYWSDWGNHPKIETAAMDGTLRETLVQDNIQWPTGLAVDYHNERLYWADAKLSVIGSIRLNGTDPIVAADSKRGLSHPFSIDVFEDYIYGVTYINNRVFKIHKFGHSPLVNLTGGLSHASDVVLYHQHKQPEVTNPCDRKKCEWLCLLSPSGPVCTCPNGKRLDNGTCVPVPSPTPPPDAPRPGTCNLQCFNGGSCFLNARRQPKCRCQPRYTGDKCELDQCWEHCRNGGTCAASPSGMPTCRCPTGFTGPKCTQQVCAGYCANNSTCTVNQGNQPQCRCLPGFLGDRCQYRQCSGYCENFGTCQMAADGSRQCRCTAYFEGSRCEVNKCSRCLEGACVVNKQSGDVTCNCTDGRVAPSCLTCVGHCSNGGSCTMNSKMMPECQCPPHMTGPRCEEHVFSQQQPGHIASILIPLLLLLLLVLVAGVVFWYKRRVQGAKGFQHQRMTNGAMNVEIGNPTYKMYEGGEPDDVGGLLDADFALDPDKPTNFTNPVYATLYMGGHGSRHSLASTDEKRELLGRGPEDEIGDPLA

“methylamine-transformed A2M* (activated alpha-2-macroglobulin) (from UniProt P01023 24-1474) (ligand)” yielded a decrease in colony formation in soft agar (anchorage-independent growth), 1321N1 cells of more than 50%.
